In patent US20100021899 (NATIONAL UNIVERSITY CORPORATION TOKYO UNIVERSITY OF …, published 2010):

Molecular target: BSA (bovine serum albumin) (Bos taurus, UniProt P02769 P02769:25-607)
Assay: ELONA; plate assay on immobilized CaDNA-3-11T; no concentration-dependent signal with BSA; PBS-T, room temperature
Details: structure-switching stem-loop

Sequence of BSA (bovine serum albumin) (P02769 25-607, one chain of several): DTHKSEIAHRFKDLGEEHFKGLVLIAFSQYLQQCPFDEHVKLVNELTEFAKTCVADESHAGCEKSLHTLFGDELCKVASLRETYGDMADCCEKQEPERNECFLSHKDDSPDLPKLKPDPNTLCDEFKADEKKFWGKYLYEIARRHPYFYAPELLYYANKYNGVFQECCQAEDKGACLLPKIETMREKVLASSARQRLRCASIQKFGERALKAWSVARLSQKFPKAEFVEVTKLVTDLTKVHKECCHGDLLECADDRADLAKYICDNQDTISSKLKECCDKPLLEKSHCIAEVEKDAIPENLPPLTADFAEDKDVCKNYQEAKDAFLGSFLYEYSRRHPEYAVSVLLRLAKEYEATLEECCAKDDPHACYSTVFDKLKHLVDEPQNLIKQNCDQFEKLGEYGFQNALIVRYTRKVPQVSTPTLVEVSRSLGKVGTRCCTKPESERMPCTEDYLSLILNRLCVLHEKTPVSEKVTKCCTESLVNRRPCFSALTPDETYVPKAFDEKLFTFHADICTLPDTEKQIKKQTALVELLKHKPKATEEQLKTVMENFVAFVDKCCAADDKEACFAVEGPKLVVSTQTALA

B1: CaAp-3 (ssDNA)
DNA: GTTCGGCACTTGGGCCCTTTTCTGTGTCTTTCTGTGCCCTTAGATAGTATGTGCAATCA
Question: Does B1 bind?
Answer: no binding
